Legend:
tobacco = test: Glyphosate tolerance of transgenic tobacco; assay type: in vivo; settings: transgenic plants, greenhouse assays
Procedure: (4) Transformation of tobacco was carried out according to the leaf disc transformation protocol, using sterilized tissue of a healthy leaf of about 2 weeks old. The main vein was removed and the leaf was cut into small pieces of 2 cm^2.
(8) After development of the roots, plants were taken out. The attached solid culture media was washed off with sterile water. The plants were initially kept in a high humidity environment such as a plastic container with a glass cover for a few days. After the plants had grown stronger, the glass covers were removed, and the plants were transferred to solid culture media containing 10 mM glyphosate for screening of glyphosate tolerant plants.
(10) Glyphosate tolerance assays in greenhouse also confirmed that the transgenic plants could grow well in media containing 15 mM glyphosate.

E. coli JM109 = test: Glyphosate tolerance of E. coli JM109 transformants on MOPS media plates; assay type: cell-based; settings: bacteria transformed with DNA encoding the enzyme (summary of Example 1)
From the text: A SuperCos1 Cosmid Vector kit (Stratagene Co., Ltd) was used to construct a community genomic DNA cosmid library. The community genomic DNA was digested with restriction endonuclease Sau3AI at 0.006 unit/microgram purified DNA. DNA fragments of about 40 kb were collected using the freeze-thaw method, and then ligated with SuperCos1/BamH1 vector. A cosmid genomic DNA library was constructed according to the manual of Stratagene Co., Ltd. For screening of glyphosate tolerant clones, JM109 E. coli was used as the acceptor bacterium for the genomic library construct, as glyphosate is only effective on an inhibitory medium such as M9 and MOPS. The ligated DNA was packaged into lambda phage particles (Stratagene, Gigapack Gold) according to the manufacturer's protocol. E. coli strain JM109 was infected with the packaged product. The transformants were selected on tetracycline LB media. Positive clones were then plated on LB media containing tetracycline and tetracycline+kanamycin, respectively. Clones growing on both media were considered as negative recombinants resulting from vector ligated with vector DNA. The number of positive transformants was calculated as the total number of colonies minus background false negative colonies. This number was used to determine the titer of the genomic library, which was 4×10^6 pfu/ml, meeting the requirement for library construction (>10^6 pfu/ml). […]

B1: EPSP synthase: novel 444 amino acid EPSP synthase highly tolerant to glyphosate, encoded by SEQ ID NO:1/3 (protein, listed as Unknown bacterium)
chain: MACLPDDSGPHVGHSTPPRLDQEPCTLSSQKTVTVTPPNFPLTGKVAPPGSKSITNRALLLAALAKGTSRLSGALKSDDTRHMSVALRQMGVTIDEPDDTTFVVTSQGSLQLPAQPLFLGNAGTAMRFLTAAVATVQGTVVLDGDEYMQKRPIGPLLATLGQNGIQVDSPTGCPPVTVHGMGKVQAKRFEIDGGLSSQYVSALLMLAACGEAPIEVALTGKDIGARGYVDLTLDCMRAFGAQVDAVDDTTWRVAPTGYTAHDYLIEPDASAATYLWAAEVLTGGRIDIGVAAQDFTQPDAKAQAVIAQFPNMQATVVGSQMQDAIPTLAVLAAFNNTPVRFTELANLRVKECDRVQALHDGLNEIRPGLATIEGDDLLVASDPALAGTACTALIDTHADHRIAMCFALAGLKVSGIRIQDPDCVAKTYPDYWKAWPSLGVHLND
glyphosate concentration in which transgenic tobacco grew (tobacco): 15 mM
glyphosate concentration of media in which transformed bacteria grew (E. coli JM109): 10 to 150 mM

From patent publication US20050223436A1, “EPSP synthase highly tolerant to glyphosate” (priority 2003, published 2005)
